Assay results from US20240116985A1 (published 2024).
Starred links: 1 amine or outer side, 2 acyl side, 3 side chain; linkers in the order of their positions; H or OH if unused. Positions of bridges follow the written chain, without caps; N, C: chain ends. Non-standard residues stand in square brackets, D forms with d. Primed or numbered codes have the meaning given here. *: point of attachment. PyrS2(3) = (S)-3-amino-1-((pent-4-en-1-yloxy)carbonyl)pyrrolidine-3-carboxylic acid, stapling residue, C=CCCCOC(=O)N1CC[C@@](N[*:1])(C(=O)[*:2])C1; RdN(3) = (R)-4-(((allyloxy)carbonyl)(methyl)amino)-2-amino-2-methylbutanoic acid, stapling residue, C=CCOC(=O)N(C)CC[C@@](C)(N[*:1])C(=O)[*:2]; B5(16) = 2-amino-2-(pent-4-en-1-yl)hept-6-enoic acid = 2,2-bis(4-pentenyl)glycine (stitching residue), C=CCCCC(CCCC=C)(N[*:1])C(=O)[*:2]; B5(18) = 2,2-bis(4-pentenyl)glycine (2-amino-2-(pent-4-en-1-yl)hept-6-enoic acid), stitching residue, C=CCCCC(CCCC=C)(N[*:1])C(=O)[*:2]; B5(5) = 2,2-bis(4-pentenyl)glycine, 2-amino-2-(pent-4-en-1-yl)hept-6-enoic acid (stitching residue), C=CCCCC(CCCC=C)(N[*:1])C(=O)[*:2]; TfeGA = (S)-2-amino-3-((carboxymethyl)(2,2,2-trifluoroethyl)amino)propanoic acid, O=C([C@H](CN(CC(=O)[*:3])CC(F)(F)F)N[*:1])[*:2]; 2COOH4NO2Ph = 2-carboxy-4-nitrophenyl group on the side chain (attached at Dap N or Cys S), O=C(O)c1cc([N+](=O)[O-])ccc1*; HypEs5 = (2R,4S)-4-(pent-4-enoyloxy)pyrrolidine-2-carboxylic acid, C=CCCC(=O)O[C@H]1C[C@H](C(=O)[*:2])N([*:1])C1; GAbu = (S)-2-amino-4-((carboxymethyl)amino)butanoic acid, O=C([C@H](CCNCC(=O)[*:3])N[*:1])[*:2]; Phe(3-COOH) = N[C@@H](Cc1cccc(C(=O)O)c1)C(=O)O; Trp(7-F) = N[C@@H](Cc1c[nH]c2c(F)cccc12)C(=O)O; S7 = C[C@@](CCCCCC=[*:3])(N[*:1])C(=O)[*:2]; Phe(2-Cl) = N[C@@H](Cc1ccccc1Cl)C(=O)O; Bta = N[C@@H](Cc1csc2ccccc12)C(=O)O; αAllylPro = C=CC[C@@]1(C(=O)O)CCCN1; tBuAla = CC(C)(C)C[C@H](N)C(=O)O; 3Thi = N[C@@H](Cc1ccsc1)C(=O)O; S8 = C=CCCCCCC[C@](C)(N)C(=O)O; 2Nic = not defined here; Dap = NC[C@H](N)C(=O)O

T1: B-cat-Halo (beta-catenin HaloTag construct expressed in HEK293 cells) (UniProt P35222 1-781)
T1 sequence (looked up): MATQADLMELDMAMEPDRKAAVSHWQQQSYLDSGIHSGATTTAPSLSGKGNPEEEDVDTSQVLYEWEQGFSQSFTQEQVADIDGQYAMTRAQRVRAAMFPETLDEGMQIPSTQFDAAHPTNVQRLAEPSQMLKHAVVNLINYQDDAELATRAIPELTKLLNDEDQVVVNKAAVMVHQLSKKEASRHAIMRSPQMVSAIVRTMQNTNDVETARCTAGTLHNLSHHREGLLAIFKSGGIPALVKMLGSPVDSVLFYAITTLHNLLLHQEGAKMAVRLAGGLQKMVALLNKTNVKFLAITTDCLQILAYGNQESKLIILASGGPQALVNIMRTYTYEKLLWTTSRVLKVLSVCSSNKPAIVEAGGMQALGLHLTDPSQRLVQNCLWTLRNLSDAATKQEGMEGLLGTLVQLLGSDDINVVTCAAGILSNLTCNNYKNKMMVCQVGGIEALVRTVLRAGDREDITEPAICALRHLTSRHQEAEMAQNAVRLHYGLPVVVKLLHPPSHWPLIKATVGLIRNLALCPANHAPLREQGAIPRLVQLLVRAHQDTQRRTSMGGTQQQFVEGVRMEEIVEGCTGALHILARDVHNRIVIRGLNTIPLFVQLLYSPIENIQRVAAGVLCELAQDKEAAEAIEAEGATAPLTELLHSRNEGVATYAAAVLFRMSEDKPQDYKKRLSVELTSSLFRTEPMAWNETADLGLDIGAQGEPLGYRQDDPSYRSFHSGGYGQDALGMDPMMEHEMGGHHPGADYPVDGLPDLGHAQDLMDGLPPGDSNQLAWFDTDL

T2: full-length beta-Catenin (Uniprot ID P35222) (Homo sapiens (Human), UniProt P35222 2-781)
T2 construct: the AlphaScreen assay uses a Histidine (Nickel Chelate) detection kit, so a His tag is likely there; also called B-Catenin; bCat
T2 sequence: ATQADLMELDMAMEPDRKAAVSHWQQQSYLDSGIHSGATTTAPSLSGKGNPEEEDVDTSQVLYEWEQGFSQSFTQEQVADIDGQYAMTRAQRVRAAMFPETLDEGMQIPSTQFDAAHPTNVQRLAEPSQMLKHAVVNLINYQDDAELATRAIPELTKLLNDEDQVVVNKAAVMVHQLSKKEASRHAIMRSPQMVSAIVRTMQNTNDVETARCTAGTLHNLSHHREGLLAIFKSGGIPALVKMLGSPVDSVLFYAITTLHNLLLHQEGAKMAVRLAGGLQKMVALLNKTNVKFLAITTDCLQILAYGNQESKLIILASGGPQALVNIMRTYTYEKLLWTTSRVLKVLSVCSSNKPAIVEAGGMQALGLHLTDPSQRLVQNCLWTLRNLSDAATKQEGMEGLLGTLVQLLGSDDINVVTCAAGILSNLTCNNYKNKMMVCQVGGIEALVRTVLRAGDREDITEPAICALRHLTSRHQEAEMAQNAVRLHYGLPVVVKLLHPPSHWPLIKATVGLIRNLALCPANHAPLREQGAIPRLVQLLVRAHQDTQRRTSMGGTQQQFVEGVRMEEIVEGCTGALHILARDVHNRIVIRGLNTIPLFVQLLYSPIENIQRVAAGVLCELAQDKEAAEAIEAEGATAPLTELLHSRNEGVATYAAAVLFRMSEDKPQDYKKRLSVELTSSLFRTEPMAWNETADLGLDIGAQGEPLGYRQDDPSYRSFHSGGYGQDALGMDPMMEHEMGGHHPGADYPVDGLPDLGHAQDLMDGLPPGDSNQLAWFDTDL

B1: I-155 (peptide)
peptide: ADIXDEAAFAXFWA
modifications: not fully specified; as printed: Ac-Ala-Asp-Ile-RdN-Asp-Glu-Ala-Ala-Phe-Ala-S7-Phe-Trp-Ala-NH2; N-terminal acetyl, C-terminal amide; RdN(4), S7(11); staple RdN-S7 by olefin metathesis
notes: stapled peptide

Biological target: T1, B-cat-Halo (beta-catenin HaloTag …)
Test: cell-based or functional assay

**Q.** How did the “NanoBRET Abs IC50” value turn out when Ac-[αAllylPro]D[tBuAla][B5(18)]D[GAbu](Ac)AAFL[PyrS2(3)][3Thi][Bta]Q-NH2 (staple 1-4, 4-11; also: double bonds not converted) [I-1840] was run?
**A.** 22300 nM

**Q.** For Ac-[αAllylPro]D[tBuAla][B5(18)]D[GAbu]AAFL[PyrS2(3)][3Thi][Bta]Q-NH2 (staple 1-4, 4-11) [I-1841], which “NanoBRET Abs IC50” value is on record?
**A.** > 20000 nM

**Q.** Ac-[αAllylPro]D[tBuAla][B5(18)]D[Dap](2COOH4NO2Ph)AAFL[PyrS2(3)][3Thi][Bta]Q-NH2 (staple 1-4, 4-11) [I-1843] was tested. Which “NanoBRET Abs IC50” value did it give?
**A.** 9500 nM

**Q.** Which “NanoBRET Abs IC50” value does the source give for Ac-[αAllylPro]D[tBuAla][B5(18)]D[Dap](2Nic)AAFL[PyrS2(3)][3Thi][Bta]Q-NH2 (staple 1-4, 4-11; reading uncertain) [I-1845] here?
**A.** 6300 nM

**Q.** Which “NanoBRET Abs IC50” value does the source give for Ac-[HypEs5]D[tBuAla][B5(18)]D[TfeGA]AAFT[PyrS2(3)][Phe(2-Cl)][Bta]Q-NH2 (staple 1-4, 4-11) [I-1846] here?
**A.** 29800 nM

**Q.** Which “NanoBRET Abs IC50” value does the source give for Ac-[HypEs5]D[tBuAla][B5(18)]D[Phe(3-COOH)]AAFL[PyrS2(3)][Phe(2-Cl)][Bta]Q-NH2 (staple 1-4, 4-11) [I-1847] here?
**A.** 26200 nM

**Q.** Which “NanoBRET Abs IC50” value does the source give for Ac-[αAllylPro]D[tBuAla][B5(18)]DC(2COOH4NO2Ph)AAFL[PyrS2(3)][3Thi][Bta]Q-NH2 (staple 1-4, 4-11) [I-1848] here?
**A.** > 20000 nM

**Q.** Ac-[αAllylPro]D[tBuAla][B5(18)]D[Phe(3-COOH)]AAFA[PyrS2(3)][Phe(2-Cl)][Bta]S-NH2 (staple 1-4, 4-11) [I-1849] was tested. Which “NanoBRET Abs IC50” value did it give?
**A.** 8800 nM

**Q.** Ac-[αAllylPro]D[tBuAla][B5(18)]D[Phe(3-COOH)]AAFV[PyrS2(3)][Phe(2-Cl)][Bta]S-NH2 (staple 1-4, 4-11) [I-1850] was tested. Which “NanoBRET Abs IC50” value did it give?
**A.** 3800 nM

Biological target: T2, full-length beta-Catenin (Uniprot ID …)
Test: fluorescence polarization competition; full-length beta-catenin with 5FAM-TCF4(10-53) probe as competitor
Experimental: (§1) The plate was incubated protected from light for 60 minutes at 20° C. prior to read. Reads were performed on a CLARIOstar plate reader (BMG Labtech) in duplicate, and data were fitted to a 1:1 binding model with hill slope using an in-house script. All provided concentrations are final concentrations.

**Q.** Which EC50 does the source give for Ac-ADI[RdN(3)]DEAAFQ[S7]FWA-NH2 (staple 4-11, stapled peptide composition) [I-153] here?
**A.** 2140 nM

**Q.** How did the EC50 turn out when B1 was run?
**A.** 5000 nM

**Q.** How did the EC50 turn out when Ac-[αAllylPro]DA[B5(16)]DEAAFV[S8]F[Trp(7-F)]Q-NH2 (staple 1-4, 4-11, stapled peptide composition) [I-166] was run?
**A.** 2160 nM

**Q.** With Ac-[αAllylPro]DI[B5(5)]DDAAFQ[S8]FWH-NH2 (staple 1-4, 4-11, stapled peptide) [I-174] as the binder, how does the EC50 read?
**A.** 1760 nM

**Q.** How did the EC50 turn out when Ac-[αAllylPro]DI[B5(5)]DDAAFQ[S8]FWH-NH2 (staple 1-4, 4-11, stapled peptide) [I-175] was run?
**A.** 1760 nM

Biological target: T2, full-length beta-Catenin (Uniprot ID …)
Test: AlphaScreen competition; full-length beta-catenin with biotin-TCF4(10-53) probe as competitor
Experimental: as §1, with “Equal volume of the titrated peptide was added to the” for “The”, “and” for “was”, “incubated for 15 minutes at 20° C. Then 4 uL of donor and 4 uL acceptor beads at 10 ug/mL were added to the plate, for a 16 uL reaction pool and” for “incubated”

**Q.** With Ac-ADI[RdN(3)]DEAAFQ[S7]FWA-NH2 (staple 4-11, stapled peptide composition) [I-153] as the binder, how does the EC50 read?
**A.** 153 nM

**Q.** Which EC50 does the source give for B1 here?
**A.** 734 nM

**Q.** For Ac-[αAllylPro]DA[B5(16)]DEAAFV[S8]F[Trp(7-F)]Q-NH2 (staple 1-4, 4-11, stapled peptide composition) [I-166], which EC50 is on record?
**A.** 86.5 nM

**Q.** With Ac-[αAllylPro]DI[B5(5)]DDAAFQ[S8]FWH-NH2 (staple 1-4, 4-11, stapled peptide) [I-174] as the binder, how does the EC50 read?
**A.** 116 nM

**Q.** For Ac-[αAllylPro]DI[B5(5)]DDAAFQ[S8]FWH-NH2 (staple 1-4, 4-11, stapled peptide) [I-175], which EC50 is on record?
**A.** 116 nM
